Results taken from patent US12624096B2, “Anti-tau antibodies and methods of use thereof” (GTInvent Limited, priority 2020, dated 2026).
“Also recorded” adds a separate entry of the source.

B1: CE2: anti-tau clone referred to as CE2 or E1B8, SEQ ID NO: 366 (protein)
scFv: QVQLQESGPSLVKPSQTLSLTCTVSGFSLTNYPVGWVRQAPGKALEWIGNIENDGSANYASALKSRLSITRDTSKNQVSLSLSSATTEDTAVYYCGREFGGSDGYTYFVDIDYWGPGLLVTVSSEGKSSGASGESKVDDQAVLTQPSSVSKSLGQSVSITCSGSSSNVGYGNYVSWFQQVPGSAPKILIYGATSRASGVPDRFSGSRSGNTATLTITSLQAEDEADYYCASYDGSSSGVFGSGTRLTVLG
modifications: CE2/E1B8 amino acid sequence
B2: S1G2 mAb: S1G2 reformatted as mAb, SEQ ID NO: 457 and 458 (antibody)
heavy: QVQLQESGPSLVKPSQTLSLTCTVSGFSLTSNSVGWVRQAPGKAPEWVAGIDTDGEEGYNPALNSRLSITRDTSKSQVSLSLSSVTSEDTAVYYCGRSYRADGLAYGYVQAIDYWGPGLLVTVSSAKTTAPSVYPLAPVCGDTTGSSVTLGCLVKGYFPEPVTLTWNSGSLSSGVHTFPAVLQSDLYTLSSSVTVTSSTWPSQSITCNVAHPASSTKVDKKIEPRGPTIKPCPPCKCPAPNLLGGPSVFIFPPKIKDVLMISLSPIVTCVVVDVSEDDPDVQISWFVNNVEVHTAQTQTHREDYNSTLRVVSALPIQHQDWMSGKEFKCKVNNKDLPAPIERTISKPKGSVRAPQVYVLPPPEEEMTKKQVTLTCMVTDFMPEDIYVEWTNNGKTELNYKNTEPVLDSDGSYFMYSKLRVEKKNWVERNSYSCSVVHEGLHNHHTTKSFSRTPGK
light: QAVVTQPSSVSGSLGQRVSITCSGSFIGISSVGWFQQLPGSGLRTIIVASDGRPSGVPDRFSMSKSGNTATLTISSLQAEDEADYFCGSSDRTPYTGVFGSGTRLTVLGGQPKSSPSVTLFPPSSEELETNKATLVCTITDFYPGVVTVDWKVDGTPVTQGMETTQPSKQSNNKYMASSYLTLTARAWERHSSYSCQVTHEGHTVEKSLSRADCS
modifications: S1G2 mAB Heavy Chain; S1G2 mAB Light Chain

Experiments:
[1] = target: hT40 (Homo sapiens, UniProt P10636); assay: Biacore X100 SPR, scAb captured via anti-HuCk, hT40 as analyte; assay type: binding; details: scAb, Table 23, T441 (hT40)
Chain of hT40 (P10636 1-441 isoform P10636-8): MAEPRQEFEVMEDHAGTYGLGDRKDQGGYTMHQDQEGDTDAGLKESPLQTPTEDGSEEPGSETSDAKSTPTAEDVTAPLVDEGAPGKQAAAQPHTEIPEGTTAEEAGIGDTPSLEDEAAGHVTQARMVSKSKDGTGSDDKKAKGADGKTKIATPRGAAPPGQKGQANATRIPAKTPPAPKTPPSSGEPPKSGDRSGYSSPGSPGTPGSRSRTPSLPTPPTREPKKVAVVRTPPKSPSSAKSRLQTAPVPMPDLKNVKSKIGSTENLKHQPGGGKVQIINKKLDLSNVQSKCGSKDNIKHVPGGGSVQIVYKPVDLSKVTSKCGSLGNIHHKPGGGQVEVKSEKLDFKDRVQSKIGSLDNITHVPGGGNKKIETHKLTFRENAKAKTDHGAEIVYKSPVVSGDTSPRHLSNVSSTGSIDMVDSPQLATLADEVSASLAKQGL
Description: Surface plasmon resonance (SPR) is widely regarded as the gold standard for real time measurement of protein-protein interactions such as antibody binding. All SPR experiments were carried out using a Biacore X100 machine and HBS EP+ running buffer (GE Healthcare). A ‘capture’ method was followed for affinity measurements, where an anti-human constant kappa chain (HuCk) antibody was conjugated to the surface of a CM5 sensor chip using an amine coupling kit and scAb molecules were immobilised via their HuCk domain. Amine coupling is a very common approach for immobilising the ligand to the chip surface. […] The capture antibody was diluted 1/100 in 10 mM Sodium acetate buffer pH 5.0 and passed over the activated chip surface for a period of at least 420 s. Final ligand immobilisation levels over 12,000 RU were deemed to be satisfactory.
(§1) Following immobilisation, the level of each scAb to be captured was identified using the standard SPR equation with a theoretical RMax of 100 RU. Analyte MW refers to the molecular weight of hT40 or dGA/dGAE molecules, while ligand MW refers to the molecular weight of the scAbs tested. RL is the desired capture level and S refers to the stoichiometric ratio:
The scAb to be tested was added only to flow cell 2 so that flow cell 1 could act as a control to subtract any interaction with the analyte and the chip surface. Both single and multi-cycle runs were utilised using wizards developed in the Biacore X100 control software which are both accepted methods of kinetic analysis (Karlsson, R., et al. Analyzing a kinetic titration series using affinity biosensors (2006) Analytical Biochemistry 349:136-47). The multi-cycle protocol was as follows-Three start-up cycles composed of an initial capture, to the desired level, of the scAb to be tested was performed followed by a 30 s injection of glycine buffer pH 2.0 after each cycle to regenerate the chip surface. […] Following three start-up cycles increasing concentrations (0.15625 nM-100 nM) of the target to be tested were added to the chip surface after the desired scAb capture. The target was added for a 120 s association period and 420 s dissociation period followed by another regeneration, 30 s injection of glycine buffer pH 2.0 in between each cycle.
(§2) The single cycle kinetics protocol was similar and utilised the same level of scAb capture. Three start-up cycles were used followed by 5 increasing concentrations of the analyte (6.25 nM-100 nM) for an association period of 120 s followed by a dissociation period of 420 s for each concentration. In single cycle kinetics the regeneration step was performed only after the final analyte concentration was added. Binding responses were analysed in Biacore X100 evaluation software and data fitted to a 1:1 binding model to obtain kinetic and affinity characterisation.

[2] = target: dGA (Homo sapiens, UniProt P10636); assay: Biacore X100 SPR, scAb captured via anti-HuCk, dGA as analyte; assay type: binding; details: dissociation rate
Chain of dGA (P10636 614-707): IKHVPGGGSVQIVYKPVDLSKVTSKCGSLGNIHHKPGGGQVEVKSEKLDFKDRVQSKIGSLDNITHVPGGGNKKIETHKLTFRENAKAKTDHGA
Description: Surface plasmon resonance (SPR) is widely regarded as the gold standard for real time measurement of protein-protein interactions such as antibody binding. All SPR experiments were carried out using a Biacore X100 machine and HBS EP+ running buffer (GE Healthcare). A ‘capture’ method was followed for affinity measurements, where an anti-human constant kappa chain (HuCk) antibody was conjugated to the surface of a CM5 sensor chip using an amine coupling kit and scAb molecules were immobilised via their HuCk domain. Amine coupling is a very common approach for immobilising the ligand to the chip surface. The chip surface has a dextran matrix derivatised with carboxyl groups, which after activation with N-hydroxysuccinimide (NHS) and 1-ethyl-3-(3-dimethylaminopropyl) carbodiimide (EDC), form reactive succinimide esters which allows the covalent capturing of the ligand via any available primary amine groups (e.g. Lysine) on the ligand (in this case anti-HuCk antibody). The capture antibody was diluted 1/100 in 10 mM Sodium acetate buffer pH 5.0 and passed over the activated chip surface for a period of at least 420 s. Final ligand immobilisation levels over 12,000 RU were deemed to be satisfactory.
as §1
The scAb to be tested was added only to flow cell 2 so that flow cell 1 could act as a control to subtract any interaction with the analyte and the chip surface. Both single and multi-cycle runs were utilised using wizards developed in the Biacore X100 control software which are both accepted methods of kinetic analysis (Karlsson, R., et al. Analyzing a kinetic titration series using affinity biosensors (2006) Analytical Biochemistry 349:136-47). The multi-cycle protocol was as follows-Three start-up cycles composed of an initial capture, to the desired level, of the scAb to be tested was performed followed by a 30 s injection of glycine buffer pH 2.0 after each cycle to regenerate the chip surface. The regeneration step removed any captured scAb whilst leaving the capture antibody intact and able to repeat the capture for the next cycle. Following three start-up cycles increasing concentrations (0.15625 nM-100 nM) of the target to be tested were added to the chip surface after the desired scAb capture. The target was added for a 120 s association period and 420 s dissociation period followed by another regeneration, 30 s injection of glycine buffer pH 2.0 in between each cycle.
as §2

[3] = target: htau40 (Homo sapiens, UniProt P10636); assay: Biacore X100 SPR of anti-tau mAbs on immobilised htau40; assay type: binding
Chain of htau40 (P10636 1-441 isoform P10636-8): as the sequence (P10636 1-441 isoform P10636-8) above
Description: For anti-tau mAb SPR measurements, htau40 was conjugated to the surface of a CM5 sensor chip using amine coupling as explained previously. Briefly, 2 μg/mL htau40 in 10 mM Sodium acetate buffer (pH 4.0) was passed over the activated chip surface (EDC/NHS) in flow cell 2 for a period for 45 s followed by blocking with 1 M ethanolamine-HCl PH 8.5. Flow cell 1 was set up as reference control and blocked simultaneously. Final immobilisation level of htau40 (Rmax) was approximately 250 RU. Following a minimum of three start-up cycles, increasing concentrations (0.78 nM-25 nM) of the mAb in HBS-EP+ buffer was added at a rate of 30 μL/min to the chip. The mAb was added for a 120 s association period and 600 s dissociation period followed by a regeneration cycle of 30 s injection of glycine buffer pH 1.5 in between each cycle. Binding responses were analysed in Biacore X100 evaluation software and data fitted to a 1:1 binding model to obtain kinetic and affinity characterisation.
For anti-tau mAb SPR measurements (Biacore X100™) and epitope mapping, the same methodologies described above (see Example 16) were followed. Kinetic rates and equilibrium binding constants of additional anti-tau mAbs and the regions recognised on hT40 are given in the Table 25 below

[4] = test system: hT40, dGA, dGAE and truncated tau fragments/peptides; assay: Binding ELISA for epitope mapping with truncated tau proteins and biotinylated 13mer peptides; set-up: species or system human; details: direct binding ELISA
Description: A series of binding ELISA was performed using various truncated versions of the tau protein and 13mer peptide libraries spanning the entire hT40 molecule for mapping the epitopes of anti-tau scAbs (Full list of protein antigens used is given in Table 14). In general, ELISA plates were coated with 1 μg/ml hT40 or dGA or dGAE or other truncated versions of the protein and in the case of biotinylated peptides, plates were coated with 5 μg/ml Streptavidin followed by 1 μg/ml biotinylated peptide. The plates were blocked with 2% MPBS and scAb samples added at desired starting concentrations and double diluted across the plate. Binding was detected using anti-Human C Kappa HRP conjugated secondary antibody and the resulting immunoreaction was developed and absorbance values measured as described above.
Similarly, dGA binding ‘NS’, ‘S’ and ‘M’ group scAbs were subjected to further antigen binding ELISA using shorter tau proteins and biotinylated 13mer peptides as shown below (FIGS. 10A-F) and (FIGS. 11A-R).
For anti-tau mAb SPR measurements (Biacore X100™) and epitope mapping, the same methodologies described above (see Example 16) were followed.

[5] = test system: alanine substituted 13mer tau peptides; assay: Alanine scanning mutagenesis (ASM) peptide ELISA; assay type: binding, human; details: numbering according to SEQ ID NO: 1; description text 'may be'
Description: To further elucidate epitopes of the scAb panel, and identify the critical amino acids needed for binding, alanine scanning mutagenesis of the parent 13 aa peptides for scAbs CE2, S1D12, CA4 and S1G2 was performed. […] Briefly, 5 μg/ml streptavidin (Thermo Fisher) was adsorbed to Nunc 96-well MaxiSorp plates and following incubation at 37° C., for 1 h, the plates were washed as normal and blocked with 2% MPBS. N-terminally biotinylated peptides (Prolmmune Ltd) were added to the plates and incubated for 1 h at 37° C. Subsequently, test scAbs at starting concentrations of 100-500 nM was added and double diluted across the plate for each peptide and incubated for 1 h at 37° C. Rest of the ELISA was conducted as described above and the plates were read at absorbance 450 nm. Immunoreactivity of the scAb of interest was quantified as the % of scAb was bound for each peptide at a chosen concentration (FIG. 15-20).

[6] = target: aggregated dGAE (Homo sapiens, UniProt P10636); assay: Capture ELISA ranking of mAbs on dGAE aggregates; assay type: binding; details: 1 μg/ml capture mAb, 800 nM aggregated dGAE
Chain of aggregated dGAE (P10636 614-708): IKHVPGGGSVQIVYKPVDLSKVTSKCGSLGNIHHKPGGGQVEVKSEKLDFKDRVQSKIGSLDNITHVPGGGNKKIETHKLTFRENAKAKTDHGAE
Description: The aggregation cascade of natively unfolded tau into insoluble filaments is a defining pathological feature of AD. Therefore, it is logical to target aggregated tau filaments for both therapeutic and diagnostic purposes. The following experiment was performed to assess the ability of our dGA mAb panel to bind aggregated dGAE using a capture ELISA method. Aggregates were prepared by incubating 100 μM dGAE and 10 mM dTT for 24 h at 37° C. with shaking at 700 RPM. The following day, dGAE aggregates were centrifuged at 17,000×g for 20 min and the supernatant was removed. The remaining pellet was washed with 10 mM phosphate buffer and centrifuged as above. Washing was repeated a further two times to remove any remaining dGAE monomer. The dGAE pellet was resuspended in 100 μl of 10 mM phosphate buffer. (Using a separate capture ELISA based quantification, we have worked out the efficiency of our dGAE aggregation as 80%)
For assessing the mAb panel for aggregate binding, designated rows of a maxisorp plate were coated with 1 μg/ml of each of the capture mAbs (S1D12, S1G2, CA4, NS2A1, CE2, E2E8 and CB7) and blocked as before. Following washing, 800 nM aggregated dGAE was added to the designated wells, double diluted across the plate and incubated for 1 h at RT. The plate was washed again and 1 μg/ml S1G2 scAb was added as detection antibody and incubated for 1 h at RT. To the row where S1G2 mAb was used for capture, […] s1D12 scAb was added as […] instead of S1G2. The assay was developed using HRP labelled HuCK as described previously.

[7] = mAb, Table 27, immobilised hT40
[8] = newly converted mAbs, Table 25 (Example 28), hT40

| Molecule | ka [1] [M⁻¹ s⁻¹] | kd [1] [s⁻¹] | Kd [2] [s⁻¹] | ka [3, 7] [M⁻¹ s⁻¹] | kd [3, 7] [s⁻¹] | ka [3, 8] [M⁻¹ s⁻¹] | kd [3, 8] [s⁻¹] | cross-reactivity of 'E' group scAbs using hT40, dGA and dGAE antigens [4] | Critical residues of the epitope [5] | ability to capture aggregated dGAE [6] |
| --- | --- | --- | --- | --- | --- | --- | --- | --- | --- | --- |
| B1 | 213700 | 0.001077 | 0.00242 | 457900 | 0.005218 | 323800 | 0.001367 | cross-reacts with dGA; also recorded: specific binding to the tau peptide representing amino acids from 313-336 | 323 (G), 324 (S), 325 (L), 326 (G), 327 (N) and/or 328 (I) |  |
| B2 |  |  |  |  |  |  |  |  |  | most efficient at capturing aggregated dGAE |
